± gives the standard deviation.

The data set in a line: protein stability index of a GFP-peptide fusion (GPS, HEK-293T) (PSI 1-6); higher = more stable.
[1] abbreviates: treatment: DMSO, c terminus: a fixed tail appended.
Setting [2] is: treatment: MLN4924 1 uM, 8 h, c terminus: a fixed tail appended.
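Note: 24-mer peptide tiles fused after GFP, lentivirally expressed, FACS-sorted into six equal bins by GFP/DsRed ratio, decoded by Illumina sequencing, PSI is the read-weighted mean bin number.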

With LEEVERAILEMKWKVRAEKEACQR [ZBED2], the protein stability index is 3.87 ± 0.18 under setting [1] and 3.76 ± 0.21 under setting [2].
In the case of GIKTVIVNMVDVAKALNRPPTYPT [EIF5], the protein stability index runs as follows: under setting [1], 2.32 ± 0.48; under setting [2], 2.4 ± 0.59.
The sequence MPEERASKYENYFSASERLSLKRE [HESX1] returned a protein stability index under setting [1] of 4.41 ± 0.51 and a protein stability index under setting [2] of 4.75 ± 0.31.
For MIIEHKIVIADVKLVADFQRYILY [ZNF277], the protein stability index under setting [1] is 3.58 ± 0.73 and the protein stability index under setting [2] worked out at 2.74 ± 1.1.
The corresponding values for CSVRPDASVSSHRFFGPNAEISQP [TCF25] are 3.57 ± 0.32 and 3.73 ± 0.092.
In turn, EGSFNGSEKETMQFLNDRLASYLE [KRT33B] displayed a protein stability index under setting [1] of 3.43 ± 0.14 and a protein stability index under setting [2] of 3.34 ± 0.21.
As to ILSKVQKNHVGKPLLKMDLNSEQA [FAM98B], the protein stability index runs as follows: under setting [1], 3.62 ± 0.31; under setting [2], 3.46 ± 0.47.
As for ILIIISVIVQIKQPRKKYVQRKSD [NETO1], the protein stability index by setting is: under setting [1], 2.86 ± 0.64; under setting [2], 2.52 ± 0.36.
The corresponding values for RWREGTKDSHDPLPSWAELLRPKY [PBXIP1] are 2.5 ± 0.21 and 2.96 ± 0.3.
Take LCDVTLMPGDTDDAFPVHRVMMAS [KLHL13]: the protein stability index is, setting by setting: under setting [1], 3.03 ± 0.34; under setting [2], 3.2 ± 0.19.
Sequence QCLDKTNESALVKEKELSIELANI [MTUS2] registered a protein stability index under setting [1] of 4.79 ± 0.27 and a protein stability index under setting [2] of 4.77 ± 0.22.
On to NWGQDPGVSANASKAWHQKSHFQN [PBXIP1], for which the protein stability index reads like this: under setting [1], 2.94 ± 0.5; under setting [2], 3.43 ± 0.32.
With DPSIFTAQPNTMLGRMFGSGREHN [BTBD10], the protein stability index amounted to 3.95 ± 0.27 under setting [1] and 3.79 ± 0.28 under setting [2].
For KAVANMQGEMDRKCKQVKEKCKEE [ZMYND11], the protein stability index by setting is: under setting [1], 5.14 ± 0.31; under setting [2], 5.31 ± 0.3.
For the sequence QIMKEGKATASEAVDCKWYIRAPP [NETO1], the protein stability index by setting is: under setting [1], 3.24 ± 0.086; under setting [2], 3.24 ± 0.2.
On to TTHFQSIPDAFWWAVVTMTTVGYG [KCNA4], for which the protein stability index runs as follows: under setting [1], 3.05 ± 0.88; under setting [2], 2.96 ± 0.33.
Turning to KREACHCEEVKMTVASEAKIQLSD [FAN1], the protein stability index runs as follows: under setting [1], 4.76 ± 0.19; under setting [2], 5 ± 0.18.
For DRGDYYLEGYRDNAYKDLAWKHGN [PCMTD1], in that order: 3.18 ± 0.2 and 3.29 ± 0.19.
For the sequence ELGGKNPAIIFEDANLDECIPATV [ALDH8A1], the protein stability index was determined as 4.54 ± 0.28 under setting [1] and 4.72 ± 0.27 under setting [2].
With GFCFFNSVAVAARHAQTISGHALR [HDAC6], the protein stability index by setting is: under setting [1], 2.25 ± 0.43; under setting [2], 1.76 ± 0.28.
On to SFSTAIGRTCITDLQLTVGGAQAS [MFSD9], for which the protein stability index was determined as 2.5 ± 0.33 under setting [1] and 2.34 ± 0.3 under setting [2].
The corresponding values for LAREGVAAFYKGYVPNMLGIIPYA [SLC25A25] are 2.42 ± 0.49 and 2.38 ± 0.27.
For the sequence DSPSRSPSKVEVTEKTTTVLSESS [C2CD2L], the protein stability index runs as follows: under setting [1], 5.59 ± 0.24; under setting [2], 5.38 ± 0.19.
In the case of KALYETELADARRALDDTARERAK [LMNB1], the protein stability index under setting [1] came to 5.191 ± 0.038 and the protein stability index under setting [2] was 5.22 ± 0.26.
Consider TELLAERFYYQALSVAPQIGMPFN [SMG5], for which the protein stability index is, setting by setting: under setting [1], 2.21 ± 0.34; under setting [2], 2.16 ± 0.17.
For ENILADNSVNDQTKILVVNAAYFV [SERPINB5], in that order: 2.25 ± 0.21 and 2.34 ± 0.17.
On to LKEGVRLDRVRGGRQKYKRRPEVD [ESRRA], for which the protein stability index by setting is: under setting [1], 4.19 ± 0.29; under setting [2], 4.43 ± 0.19.
On to DAKARKQEIIKTTEQLIEAVNNGD [CAMK2B], for which the protein stability index by setting is: under setting [1], 5.27 ± 0.29; under setting [2], 5.26 ± 0.19.
As to QQVKKLEKALKKNVKLQELINHKK [CEP70], the protein stability index came out at 2.6 ± 0.28 under setting [1] and 2.67 ± 0.41 under setting [2].
On to VLLGWTLHYFPFFLMGRVLYFHHY [POMT2], for which the protein stability index runs as follows: under setting [1], 2.96 ± 0.29; under setting [2], 2.91 ± 0.42.
The corresponding values for AACIAYIRLTQYIDGQGRPRTSQS [CAMK2B] are 2.24 ± 0.54 and 2.48 ± 0.23.
With ARPSETFARFCKSQESALGNTVPA [DNAAF3], the protein stability index runs as follows: under setting [1], 3.12 ± 0.26; under setting [2], 2.94 ± 0.26.
Take CLLGLGSLVLILSLSYTVLIVGRI [SLC2A12]: the protein stability index is, setting by setting: under setting [1], 3.06 ± 0.48; under setting [2], 3.26 ± 0.38.
LIALLTWGYIRYSGQYRELGGAID [ATL3]: the protein stability index came out at 3.4 ± 0.13 under setting [1] and 3.52 ± 0.17 under setting [2].
On to PSPDMECADVPLLTPSSKEMMSQA [ETS1], for which the protein stability index under setting [1] worked out at 5.15 ± 0.25 and the protein stability index under setting [2] turned out to be 5.2 ± 0.11.
LVMASLYHIYVALEEEIERNKESP [HMOX1] gave a protein stability index under setting [1] of 2.27 ± 0.19 and a protein stability index under setting [2] of 2.22 ± 0.44.
For TMAQHAEVLVKSNNLTDRIVVIPG [CARM1], the protein stability index reads like this: under setting [1], 3.08 ± 0.22; under setting [2], 3.36 ± 0.23.
For NLLQPNFEAAFGTTPSTSSSSSFD [SNAP91], in that order: 4.11 ± 0.093 and 4.08 ± 0.046.
KTSLWEEENALWEEERAFWMENNG [CCDC70] yielded a protein stability index under setting [1] of 4 ± 0.12 and a protein stability index under setting [2] of 3.94 ± 0.19.
In turn, EEMEEEEEEEEEEDEDDDSADMDE [FBXO3] yielded a protein stability index under setting [1] of 5.57 ± 0.15 and a protein stability index under setting [2] of 5.59 ± 0.087.
Turning to IDNANRILGPAYFVTYVFFVFFVL [PKD2L1], the protein stability index runs as follows: under setting [1], 2.67 ± 0.71; under setting [2], 2.67 ± 0.6.
With RSMVFKDVLLLGNDYIVPRHCPEL [HNF4A], the protein stability index came out at 2.29 ± 0.14 under setting [1] and 2.23 ± 0.32 under setting [2].
GMQMAEDSKSLKTHQTQPGIRRAR [NET1]: the protein stability index reads like this: under setting [1], 4.78 ± 0.36; under setting [2], 4.69 ± 0.46.
As to AAAFSQCEEWSFFHAYYYCFITLT [KCNK9], the protein stability index reads like this: under setting [1], 3.33 ± 0.51; under setting [2], 3.23 ± 0.49.
The corresponding values for CAGSTALQEPGEPQGPPASPSCPE [PXN] are 5.15 ± 0.27 and 5.48 ± 0.18.
On to ATSGPPGIQPGQEPPVTMIFMGYQ [PALM], for which the protein stability index runs as follows: under setting [1], 2.47 ± 0.24; under setting [2], 2.38 ± 0.14.
As to IRESRLFGAVVRWAEAECQRQQLP [BTBD1], the protein stability index by setting is: under setting [1], 2.5 ± 0.16; under setting [2], 2.46 ± 0.13.
With HSHPPEIKDQGGAGEGLVRSANGF [MAP2], the protein stability index turned out to be 4.7 ± 0.14 under setting [1] and 4.76 ± 0.2 under setting [2].
Turning to TQLFIGGVTGWCTGFIFQKVGKLA [FUNDC2], the protein stability index under setting [1] stood at 2.33 ± 0.39 and the protein stability index under setting [2] was 2.32 ± 0.28.
Consider KEDGEPSWREAKVSWFGSPTTSFL [PWWP2B], for which the protein stability index stood at 2.95 ± 0.082 under setting [1] and 3.17 ± 0.55 under setting [2].
For IVRFSGQSRGVPAVSESYSAPGAC [FBXO34], the protein stability index by setting is: under setting [1], 3.15 ± 0.34; under setting [2], 3.36 ± 0.38.
FPSTSYNARLQAMWGQSLLPPVST [TNXB]: the protein stability index under setting [1] was 2.36 ± 0.32 and the protein stability index under setting [2] came out at 2.51 ± 0.35.
The corresponding values for QGGELVVAYPYDLVRSPWKTQEHT [CPXM2] are 2.58 ± 0.21 and 2.15 ± 0.25.
For MELGPEPPHRRRLLFACSPPPASQ [CDC25A], in that order: 3.57 ± 0.2 and 3.47 ± 0.17.
For YSQASELPTDAVDCMSRELVSLTS [FBXO34], in that order: 4.03 ± 0.14 and 4.11 ± 0.11.
With VIDILPNCVSSVYLYYDPDYSFLS [ATE1], the protein stability index stood at 3.35 ± 0.49 under setting [1] and 3.1 ± 0.77 under setting [2].
As for GAGEGAAASPELSALEEAFRRFAV [TPPP], the protein stability index amounted to 3.58 ± 0.58 under setting [1] and 3.74 ± 0.44 under setting [2].
AWLEGRIRQEFDKLREFLRVEEQA [TRIM35]: the protein stability index runs as follows: under setting [1], 2.81 ± 0.4; under setting [2], 2.94 ± 0.5.
For EKNKHIFPASRWEPYDPEKKWDKY [FAM50A], the protein stability index is 3.52 ± 0.2 under setting [1] and 3.6 ± 0.14 under setting [2].
Regarding SYDVALHRTRLQDLRVLVSNASED [SCARA5], the protein stability index is, setting by setting: under setting [1], 3.77 ± 0.18; under setting [2], 3.93 ± 0.27.
For the sequence SLGGCSQDFLLFSPEVESLPVASS [NFE2L1], the protein stability index by setting is: under setting [1], 2.49 ± 0.52; under setting [2], 2.74 ± 0.24.
Take SSEEGWRLFKIDKEYLLKMATEE [SAT1]: the protein stability index reads like this: (treatment: DMSO, c terminus: native) 2.78 ± 0.62; (treatment: MLN4924 1 uM, 8 h, c terminus: native) 2.88 ± 0.68.
Regarding VLGGNLQGGELVVAYPYDLVRSPW [CPXM2], the protein stability index came out at 2.13 ± 0.12 under setting [1] and 2.48 ± 0.48 under setting [2].
In the case of EAAGGDHETESTSDKETDIDDRYG [CDS1], the protein stability index under setting [1] came out at 5.6 ± 0.09 and the protein stability index under setting [2] is 5.62 ± 0.22.
As for SENVVNRMKEPSSPPPAPTSSTFG [CHCHD6], the protein stability index was found to be 5.04 ± 0.2 under setting [1] and 5.3 ± 0.13 under setting [2].
With PGPKGDPGEKSHWGEGLHQLREAL [EMID1], the protein stability index reads like this: under setting [1], 3.32 ± 0.13; under setting [2], 3.46 ± 0.52.
In the case of GEKPYECQDCGRAFNQNSSLGRHK [ZNF8], the protein stability index is 3.19 ± 0.47 under setting [1] and 3.69 ± 0.23 under setting [2].
Consider EQEDPADYCKGGYHPVKIGDLFNG [SRPK2], for which the protein stability index reads like this: under setting [1], 3.9 ± 0.32; under setting [2], 3.98 ± 0.47.
Regarding APSLRRHVLIHNTLQQLQAALRLA [SERTAD3], the protein stability index is, setting by setting: under setting [1], 2.21 ± 0.33; under setting [2], 2.29 ± 0.13.
Consider KQKGSEENLDEAREQKEKSPPDQP [ADD1], for which the protein stability index was 5.68 ± 0.26 under setting [1] and 5.78 ± 0.15 under setting [2].
Sequence TMRYINGLDPEPLPLMDLCRRSIR [SPSB4] yielded a protein stability index under setting [1] of 3.31 ± 0.36 and a protein stability index under setting [2] of 3.42 ± 0.3.
As to RNIHRHVILSEIKEAVAALPPDVT [TCF25], the protein stability index is, setting by setting: under setting [1], 3.35 ± 0.084; under setting [2], 3.62 ± 0.28.

For the origin of these results see the supplement of paper PMC10567573.
